{"source": "paper PMC11869524", "about": "“A leucine responsive small RNA AbcR200 regulates expression of the lactate utilization (lut) operon in Acinetobacter baumannii DS002” (The Journal of Biological Chemistry, 2025)", "proteins": {"B1": {"name": "A. baumannii DS002 Lrp protein (AbLrp^C6His), leucine responsive regulatory protein (natural protein, Acinetobacter baumannii DS002, UniProt V5VJ98 1-155, looked up)", "chain": "MRPLDRIDRMILDILQREGRIAISELASRVNLSTTPCSERVKRLERDGIIMGYYARLNPAYVDRNLLVFLEIKLSAKSGDVFDQVARDLVEIPEVLECHLISGEFDYLVKARLKEMSAYRRLLGDLLKKLPASASSHSYVVMEEVKETLYLDVSK", "notes": "Leucine responsive regulatory protein (Lrp) of Acinetobacter baumannii DS002; lrp gene amplified from chromosomal DNA with primers HS36 FP/HS36 RP and cloned in pET23b as NdeI and XhoI fragment (pHS10); not shown: His6, C-terminal, kept"}}, "key": {"[1]": {"target": "the molecule itself", "assay": "cross-linking; 23 uM purified AbLrp^C6His dialyzed against 20 mM Hepes, 150 mM NaCl, pH 8.0; DSS (3 mM), 30 min at room temperature, quenched with Tris-Cl; SDS-PAGE (12.5%) and Western blot with anti-His antibodies; without leucine, with or without DNA (300 ng) containing the Lrp binding site"}, "[2]": {"target": "the molecule itself", "assay": "cross-linking; 23 uM purified AbLrp^C6His dialyzed against 20 mM Hepes, 150 mM NaCl, pH 8.0; DSS (3 mM), 30 min at room temperature, quenched with Tris-Cl; SDS-PAGE (12.5%) and Western blot with anti-His antibodies; with leucine (5 mM), with or without DNA (300 ng) containing the Lrp binding site"}}, "note": "Values joined by “and” are separate entries in the source; they are usually repeats but may differ in a detail not shown here. Equal entries are not always repeated.", "data": [{"protein": "B1", "values": [{"measurement": "stoichiometry N", "setting": "[1]", "value": 4}, {"measurement": "stoichiometry N", "setting": "[2]", "value": "2 and 3"}]}]}
